# T1: EsCas13d, nuclease-dead (Eubacterium siraeum, UniProt B0MS50, R295A;H300A;R849A;H854A)
# T1 sequence: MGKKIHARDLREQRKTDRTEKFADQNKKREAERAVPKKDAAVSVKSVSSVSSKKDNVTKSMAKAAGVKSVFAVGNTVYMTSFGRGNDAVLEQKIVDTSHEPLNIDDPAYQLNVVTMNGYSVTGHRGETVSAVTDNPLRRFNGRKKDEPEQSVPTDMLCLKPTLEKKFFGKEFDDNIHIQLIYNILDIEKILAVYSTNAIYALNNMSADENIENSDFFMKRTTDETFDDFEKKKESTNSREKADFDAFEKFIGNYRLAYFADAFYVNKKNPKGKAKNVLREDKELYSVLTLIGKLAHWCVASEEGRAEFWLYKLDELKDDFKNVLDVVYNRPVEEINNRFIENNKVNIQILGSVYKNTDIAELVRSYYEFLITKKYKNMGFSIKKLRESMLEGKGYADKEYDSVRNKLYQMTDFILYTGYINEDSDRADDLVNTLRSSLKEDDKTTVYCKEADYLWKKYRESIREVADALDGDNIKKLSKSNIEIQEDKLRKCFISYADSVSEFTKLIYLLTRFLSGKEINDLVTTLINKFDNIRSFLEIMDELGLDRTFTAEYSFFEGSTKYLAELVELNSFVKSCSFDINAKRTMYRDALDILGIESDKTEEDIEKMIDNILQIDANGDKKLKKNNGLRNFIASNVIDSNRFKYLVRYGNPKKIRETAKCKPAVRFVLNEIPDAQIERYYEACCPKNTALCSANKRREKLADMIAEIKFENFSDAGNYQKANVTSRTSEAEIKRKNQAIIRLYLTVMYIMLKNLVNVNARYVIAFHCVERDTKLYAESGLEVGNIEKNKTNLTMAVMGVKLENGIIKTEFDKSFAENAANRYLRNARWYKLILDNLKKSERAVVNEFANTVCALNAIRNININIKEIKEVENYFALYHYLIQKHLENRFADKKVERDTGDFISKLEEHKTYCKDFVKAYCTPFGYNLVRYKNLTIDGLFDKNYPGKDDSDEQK
# Target: T1, EsCas13d, nuclease-dead
# Test: crRNA (strand 1, pre-loaded); Mg2+; 40 mM Tris-HCl pH 7.5, 150 mM NaCl, 6 mM MgCl2, 1 mM DTT, 0.1% Tween-20, 0.2 mg/ml BSA; 25 C; 10 min per concentration, then washed
# Details: tags: His6-TwinStrep-SUMO cleaved; N-terminal SNAP kept (SNAP-Surface 488); label: 3' end held by stalled T7 RNA polymerase
row,Binder,Kd [nM]
1,"target 1 C6A,G13A (mixed) RNA 1: CACCCGUGCAAAAAUGCAGGGGUCUAAAACUGAGCGGAUAACCUCUCUAUGG RNA 2: GGGAAUGGAUCCACAUCUACGAAUUCGUACCAUAGAGAAGUUAUCAGCUCACCGAGAUCGGAAGAGCACACGU",6.6 ± 0.4
2,"target 1 insG 3' of 18,insA 3' of 11 (mixed) RNA 1: CACCCGUGCAAAAAUGCAGGGGUCUAAAACUGAGCGGAUAACCUCUCUAUGG RNA 2: GGGAAUGGAUCCACAUCUACGAAUUCGUACCAUAGGAGAGGUAUAUCCGCUCACCGAGAUCGGAAGAGCACACGU",89 ± 11
3,"target 1 A20U,C21U (mixed) RNA 1: CACCCGUGCAAAAAUGCAGGGGUCUAAAACUGAGCGGAUAACCUCUCUAUGG RNA 2: GGGAAUGGAUCCACAUCUACGAAUUCGUACUUUAGAGAGGUUAUCCGCUCACCGAGAUCGGAAGAGCACACGU",19.5 ± 1.2
4,"target 1 C6G,U11G (mixed) RNA 1: CACCCGUGCAAAAAUGCAGGGGUCUAAAACUGAGCGGAUAACCUCUCUAUGG RNA 2: GGGAAUGGAUCCACAUCUACGAAUUCGUACCAUAGAGAGGGUAUCGGCUCACCGAGAUCGGAAGAGCACACGU",9.6 ± 0.5
5,"target 1 insU 3' of 12,insA 3' of 12 (mixed) RNA 1: CACCCGUGCAAAAAUGCAGGGGUCUAAAACUGAGCGGAUAACCUCUCUAUGG RNA 2: GGGAAUGGAUCCACAUCUACGAAUUCGUACCAUAGAGAGGUAUUAUCCGCUCACCGAGAUCGGAAGAGCACACGU",10.1 ± 0.5
6,"target 1 insG 3' of 10,insU 3' of 6 (mixed) RNA 1: CACCCGUGCAAAAAUGCAGGGGUCUAAAACUGAGCGGAUAACCUCUCUAUGG RNA 2: GGGAAUGGAUCCACAUCUACGAAUUCGUACCAUAGAGAGGUUGAUCCUGCUCACCGAGAUCGGAAGAGCACACGU",36.8 ± 3.1
7,"target 1 insC 3' of 19,insG 3' of 8 (mixed) RNA 1: CACCCGUGCAAAAAUGCAGGGGUCUAAAACUGAGCGGAUAACCUCUCUAUGG RNA 2: GGGAAUGGAUCCACAUCUACGAAUUCGUACCAUCAGAGAGGUUAUGCCGCUCACCGAGAUCGGAAGAGCACACGU",45 ± 7
8,"target 1 G5C,U19G (mixed) RNA 1: CACCCGUGCAAAAAUGCAGGGGUCUAAAACUGAGCGGAUAACCUCUCUAUGG RNA 2: GGGAAUGGAUCCACAUCUACGAAUUCGUACCAGAGAGAGGUUAUCCCCUCACCGAGAUCGGAAGAGCACACGU",30 ± 4
9,"target 1 C7G,A14G (mixed) RNA 1: CACCCGUGCAAAAAUGCAGGGGUCUAAAACUGAGCGGAUAACCUCUCUAUGG RNA 2: GGGAAUGGAUCCACAUCUACGAAUUCGUACCAUAGAGGGGUUAUGCGCUCACCGAGAUCGGAAGAGCACACGU",17.7 ± 1.2
10,"target 1 U3C,G5U (mixed) RNA 1: CACCCGUGCAAAAAUGCAGGGGUCUAAAACUGAGCGGAUAACCUCUCUAUGG RNA 2: GGGAAUGGAUCCACAUCUACGAAUUCGUACCAUAGAGAGGUUAUCCUCCCACCGAGAUCGGAAGAGCACACGU",42 ± 9
11,"target 1 insU 3' of 7,insG 3' of 4 (mixed) RNA 1: CACCCGUGCAAAAAUGCAGGGGUCUAAAACUGAGCGGAUAACCUCUCUAUGG RNA 2: GGGAAUGGAUCCACAUCUACGAAUUCGUACCAUAGAGAGGUUAUCUCGCGUCACCGAGAUCGGAAGAGCACACGU",7.41 ± 0.26
12,"target 1 C7G,U10C (mixed) RNA 1: CACCCGUGCAAAAAUGCAGGGGUCUAAAACUGAGCGGAUAACCUCUCUAUGG RNA 2: GGGAAUGGAUCCACAUCUACGAAUUCGUACCAUAGAGAGGUCAUGCGCUCACCGAGAUCGGAAGAGCACACGU",24.6 ± 2.2
13,"target 1 A9U,G12U (mixed) RNA 1: CACCCGUGCAAAAAUGCAGGGGUCUAAAACUGAGCGGAUAACCUCUCUAUGG RNA 2: GGGAAUGGAUCCACAUCUACGAAUUCGUACCAUAGAGAGUUUUUCCGCUCACCGAGAUCGGAAGAGCACACGU",10.9 ± 1.1
14,target 1 insA 3' of 5 (mixed) RNA 1: CACCCGUGCAAAAAUGCAGGGGUCUAAAACUGAGCGGAUAACCUCUCUAUGG RNA 2: GGGAAUGGAUCCACAUCUACGAAUUCGUACCAUAGAGAGGUUAUCCGACUCACCGAGAUCGGAAGAGCACACGU,6.2 ± 0.4
15,"target 1 U11A,C21U (mixed) RNA 1: CACCCGUGCAAAAAUGCAGGGGUCUAAAACUGAGCGGAUAACCUCUCUAUGG RNA 2: GGGAAUGGAUCCACAUCUACGAAUUCGUACUAUAGAGAGGAUAUCCGCUCACCGAGAUCGGAAGAGCACACGU",8.3 ± 0.5
16,"target 1 insA 3' of 21,insG 3' of 2 (mixed) RNA 1: CACCCGUGCAAAAAUGCAGGGGUCUAAAACUGAGCGGAUAACCUCUCUAUGG RNA 2: GGGAAUGGAUCCACAUCUACGAAUUCGUACCAAUAGAGAGGUUAUCCGCUCGACCGAGAUCGGAAGAGCACACGU",16 ± 0.9
17,"target 1 A1U,U11A (mixed) RNA 1: CACCCGUGCAAAAAUGCAGGGGUCUAAAACUGAGCGGAUAACCUCUCUAUGG RNA 2: GGGAAUGGAUCCACAUCUACGAAUUCGUACCAUAGAGAGGAUAUCCGCUCUCCGAGAUCGGAAGAGCACACGU",37.8 ± 3
18,"target 1 insG 3' of 4,insG 3' of 4 (mixed) RNA 1: CACCCGUGCAAAAAUGCAGGGGUCUAAAACUGAGCGGAUAACCUCUCUAUGG RNA 2: GGGAAUGGAUCCACAUCUACGAAUUCGUACCAUAGAGAGGUUAUCCGCGGUCACCGAGAUCGGAAGAGCACACGU",5.72 ± 0.26
19,"target 1 U19A,A20U (mixed) RNA 1: CACCCGUGCAAAAAUGCAGGGGUCUAAAACUGAGCGGAUAACCUCUCUAUGG RNA 2: GGGAAUGGAUCCACAUCUACGAAUUCGUACCUAAGAGAGGUUAUCCGCUCACCGAGAUCGGAAGAGCACACGU",47 ± 4
20,"target 1 insC 3' of 13,insU 3' of 1 (mixed) RNA 1: CACCCGUGCAAAAAUGCAGGGGUCUAAAACUGAGCGGAUAACCUCUCUAUGG RNA 2: GGGAAUGGAUCCACAUCUACGAAUUCGUACCAUAGAGAGCGUUAUCCGCUCAUCCGAGAUCGGAAGAGCACACGU",11.5 ± 1.1
21,"target 1 A1U,G15U (mixed) RNA 1: CACCCGUGCAAAAAUGCAGGGGUCUAAAACUGAGCGGAUAACCUCUCUAUGG RNA 2: GGGAAUGGAUCCACAUCUACGAAUUCGUACCAUAGAUAGGUUAUCCGCUCUCCGAGAUCGGAAGAGCACACGU",25.9 ± 3
22,"target 1 del9,del14 (mixed) RNA 1: CACCCGUGCAAAAAUGCAGGGGUCUAAAACUGAGCGGAUAACCUCUCUAUGG RNA 2: GGGAAUGGAUCCACAUCUACGAAUUCGUACCAUAGAGGGUUUCCGCUCACCGAGAUCGGAAGAGCACACGU",28 ± 1.8
23,"target 1 insU 3' of 21,insC 3' of 20 (mixed) RNA 1: CACCCGUGCAAAAAUGCAGGGGUCUAAAACUGAGCGGAUAACCUCUCUAUGG RNA 2: GGGAAUGGAUCCACAUCUACGAAUUCGUACCUACUAGAGAGGUUAUCCGCUCACCGAGAUCGGAAGAGCACACGU",13.5 ± 1
24,"target 1 A1U,U8C (mixed) RNA 1: CACCCGUGCAAAAAUGCAGGGGUCUAAAACUGAGCGGAUAACCUCUCUAUGG RNA 2: GGGAAUGGAUCCACAUCUACGAAUUCGUACCAUAGAGAGGUUACCCGCUCUCCGAGAUCGGAAGAGCACACGU",11.2 ± 0.5
25,"target 1 del3,del17 (mixed) RNA 1: CACCCGUGCAAAAAUGCAGGGGUCUAAAACUGAGCGGAUAACCUCUCUAUGG RNA 2: GGGAAUGGAUCCACAUCUACGAAUUCGUACCAUAAGAGGUUAUCCGCCACCGAGAUCGGAAGAGCACACGU",67 ± 17
26,"target 1 insG 3' of 19,insA 3' of 10 (mixed) RNA 1: CACCCGUGCAAAAAUGCAGGGGUCUAAAACUGAGCGGAUAACCUCUCUAUGG RNA 2: GGGAAUGGAUCCACAUCUACGAAUUCGUACCAUGAGAGAGGUUAAUCCGCUCACCGAGAUCGGAAGAGCACACGU",59 ± 5
27,"target 1 U8C,G12U (mixed) RNA 1: CACCCGUGCAAAAAUGCAGGGGUCUAAAACUGAGCGGAUAACCUCUCUAUGG RNA 2: GGGAAUGGAUCCACAUCUACGAAUUCGUACCAUAGAGAGUUUACCCGCUCACCGAGAUCGGAAGAGCACACGU",10.7 ± 0.6
28,"target 1 insG 3' of 19,insU 3' of 4 (mixed) RNA 1: CACCCGUGCAAAAAUGCAGGGGUCUAAAACUGAGCGGAUAACCUCUCUAUGG RNA 2: GGGAAUGGAUCCACAUCUACGAAUUCGUACCAUGAGAGAGGUUAUCCGCUUCACCGAGAUCGGAAGAGCACACGU",53 ± 6

# — PMC10786891, “Massively parallel profiling of RNA-targeting CRISPR-Cas13d”
